Two substances from patent US20120058906A1 can be followed below.

Experiment [1] has as its target rHuman Notch-1/Fc Chimera, CF (R&D Systems Cat#3647-TK) (human) (UniProt P46531). The experiment in a line: ECL (MSD multi-spot) screen, antigen spotted on plate, Fab at 0.12 uM; blank spot 2225.
In experiment [2] the target is rHuman ErbB2/Fc Chimera, CF (R&D Systems Cat#1129-ER) (human) (UniProt P04626). Described as above.
Experiment [3] concerns the target Recombinant Human DLL4 (R&D Systems Cat#1506-D4/CF) (human) (UniProt Q9NR61). Described as above.
Experiment [4] has as its target rHuman HGF R/c-MET/Fc Chimera, CF (R&D Systems Cat#358-MT/CF) (human) (UniProt P08581). Described as above.
The target of experiment [5] is rHuman Notch-1/Fc Chimera, CF (R&D Systems Cat#3647-TK) (human) (UniProt P46531). The experiment in a line: MSD ECL multi-spot plate, antigen immobilized; Fab 12 nM; blank spot 573.
For experiment [6], the target named is Recombinant Human DLL4 (R&D Systems Cat#1506-D4/CF) (human) (UniProt Q9NR61). The description is as above.
The target in experiment [7] is rHuman HGF R/c-MET/Fc Chimera, CF (R&D Systems Cat#358-MT/CF) (human) (UniProt P08581). Described as above.
In experiment [8] the target is rHuman Notch-1/Fc Chimera, CF (R&D Systems Cat#3647-TK) (human) (UniProt P46531). The experiment in a line: MSD ECL multi-spot plate, antigen immobilized; Fab 1.2 nM; blank spot 227.
For experiment [9], the target named is Recombinant Human DLL4 (R&D Systems Cat#1506-D4/CF) (human) (UniProt Q9NR61). The experiment is described as above.
The target of experiment [10] is rHuman HGF R/c-MET/Fc Chimera, CF (R&D Systems Cat#358-MT/CF) (human) (UniProt P08581). The description is as above.
Experiment [11] deals with rHuman Notch-1/Fc Chimera, CF (R&D Systems Cat#3647-TK) (human) (UniProt P46531). The experiment in a line: MSD ECL multi-spot plate, antigen immobilized; Fab 120 nM; blank spot 6749.
Experiment [12] concerns the target Recombinant Human DLL4 (R&D Systems Cat#1506-D4/CF) (human) (UniProt Q9NR61). Described as above.
Experiment [13] has as its target rHuman HGF R/c-MET/Fc Chimera, CF (R&D Systems Cat#358-MT/CF) (human) (UniProt P08581). The experiment is described as above.
Experiment [14] has as its target rHuman Notch-1/Fc Chimera, CF (R&D Systems Cat#3647-TK) (human) (UniProt P46531). The experiment in a line: MSD ECL multi-spot plate, antigen immobilized; Fab 0.12 nM; blank spot 264.
Experiment [15] concerns the target Recombinant Human DLL4 (R&D Systems Cat#1506-D4/CF) (human) (UniProt Q9NR61). The experiment is described as above.
The target of experiment [16] is rHuman HGF R/c-MET/Fc Chimera, CF (R&D Systems Cat#358-MT/CF) (human) (UniProt P08581). The experiment is described as above.
The target in experiment [17] is rHuman Notch-1/Fc Chimera, CF (R&D Systems Cat#3647-TK) (human) (UniProt P46531). The experiment in a line: ECL (MSD multi-spot), Fab 210 nM; blank 833.
Experiment [18] deals with rHuman ErbB2/Fc Chimera, CF (R&D Systems Cat#1129-ER) (human) (UniProt P04626). The experiment in a line: ECL (MSD multi-spot), Fab 210 nM; blank 833.
The target in experiment [19] is rHuman HGF R/c-MET/Fc Chimera, CF (R&D Systems Cat#358-MT/CF) (human) (UniProt P08581). The experiment in a line: ECL (MSD multi-spot), Fab 210 nM; blank 833.
Experiment [20] addresses rHuman Erythropoietin R/Fc Chimera, CF (R&D Systems Cat#963-ER) (human) (UniProt P19235). Description: ECL (MSD multi-spot), Fab 210 nM; blank 833.
For experiment [21], the target named is rHuman IGF-1 sR (IGF-1 sR), CF (R&D Systems Cat#391-GR) (human) (UniProt P08069). The experiment in a line: ECL (MSD multi-spot), Fab 210 nM; blank 833.
For experiment [22], the target named is rHuman EGF R/Fc Chimera, CF (R&D Systems Cat#344-ER) (human) (UniProt P00533). The experiment in a line: ECL (MSD multi-spot), Fab 210 nM; blank 833.
In experiment [23] the target is rHuman ErbB2/Fc Chimera, CF (R&D Systems Cat#1129-ER) (human) (UniProt P04626). Description: ECL (MSD multi-spot) screen, antigen spotted on plate, Fab at 0.21 uM; blank spot 489.
Experiment [24] concerns the target rHuman HGF R/c-MET/Fc Chimera, CF (R&D Systems Cat#358-MT/CF) (human) (UniProt P08581). The description is as above.
Experiment [25] has as its target rHuman EGF R/Fc Chimera, CF (R&D Systems Cat#344-ER) (human) (UniProt P00533). The experiment is described as above.
Experiment [26] deals with rHuman IGF-1 sR, CF (R&D Systems Cat#391-GR) (human) (UniProt P08069). The experiment is described as above.
Experiment [27] concerns the target rHuman Notch-1/Fc Chimera, CF (R&D Systems Cat#3647-TK) (human) (UniProt P46531). Description: ECL (MSD multi-spot), Fab […]; blank 376.
Experiment [28] deals with rHuman ErbB2/Fc Chimera, CF (R&D Systems Cat#1129-ER) (human) (UniProt P04626). The experiment in a line: ECL (MSD multi-spot), Fab […]; blank 376.
Experiment [29] has as its target rHuman HGF R/c-MET/Fc Chimera, CF (R&D Systems Cat#358-MT/CF) (human) (UniProt P08581). The experiment in a line: ECL (MSD multi-spot), Fab […]; blank 376.
Experiment [30] has as its target rHuman Erythropoietin R/Fc Chimera, CF (R&D Systems Cat#963-ER) (human) (UniProt P19235). Description: ECL (MSD multi-spot), Fab […]; blank 376.
Experiment [31] deals with rHuman IGF-1 sR (IGF-1 sR), CF (R&D Systems Cat#391-GR) (human) (UniProt P08069). Description: ECL (MSD multi-spot), Fab […]; blank 376.
Experiment [32] concerns the target rHuman EGF R/Fc Chimera, CF (R&D Systems Cat#344-ER) (human) (UniProt P00533). Description: ECL (MSD multi-spot), Fab […]; blank 376.
The target in experiment [33] is rHuman Notch-1/Fc Chimera, CF (R&D Systems Cat#3647-TK) (human) (UniProt P46531). Description: ECL (MSD multi-spot), Fab 52.5 nM; blank 467.
Experiment [34] has as its target rHuman ErbB2/Fc Chimera, CF (R&D Systems Cat#1129-ER) (human) (UniProt P04626). Description: ECL (MSD multi-spot), Fab 52.5 nM; blank 467.
Experiment [35] addresses rHuman HGF R/c-MET/Fc Chimera, CF (R&D Systems Cat#358-MT/CF) (human) (UniProt P08581). The experiment in a line: ECL (MSD multi-spot), Fab 52.5 nM; blank 467.
For experiment [36], the target named is rHuman Erythropoietin R/Fc Chimera, CF (R&D Systems Cat#963-ER) (human) (UniProt P19235). Description: ECL (MSD multi-spot), Fab 52.5 nM; blank 467.
Experiment [37] addresses rHuman IGF-1 sR (IGF-1 sR), CF (R&D Systems Cat#391-GR) (human) (UniProt P08069). The experiment in a line: ECL (MSD multi-spot), Fab 52.5 nM; blank 467.
The target in experiment [38] is rHuman EGF R/Fc Chimera, CF (R&D Systems Cat#344-ER) (human) (UniProt P00533). Description: ECL (MSD multi-spot), Fab 52.5 nM; blank 467.
Experiment [39] addresses rHuman Notch-1/Fc Chimera, CF (R&D Systems Cat#3647-TK) (human) (UniProt P46531). The experiment in a line: ECL (MSD multi-spot), Fab 3.3 nM; blank 359.
For experiment [40], the target named is rHuman ErbB2/Fc Chimera, CF (R&D Systems Cat#1129-ER) (human) (UniProt P04626). Description: ECL (MSD multi-spot), Fab 3.3 nM; blank 359.
The target in experiment [41] is rHuman HGF R/c-MET/Fc Chimera, CF (R&D Systems Cat#358-MT/CF) (human) (UniProt P08581). The experiment in a line: ECL (MSD multi-spot), Fab 3.3 nM; blank 359.
For experiment [42], the target named is rHuman Erythropoietin R/Fc Chimera, CF (R&D Systems Cat#963-ER) (human) (UniProt P19235). Description: ECL (MSD multi-spot), Fab 3.3 nM; blank 359.
The target in experiment [43] is rHuman IGF-1 sR (IGF-1 sR), CF (R&D Systems Cat#391-GR) (human) (UniProt P08069). The experiment in a line: ECL (MSD multi-spot), Fab 3.3 nM; blank 359.
In experiment [44] the target is rHuman EGF R/Fc Chimera, CF (R&D Systems Cat#344-ER) (human) (UniProt P00533). The experiment in a line: ECL (MSD multi-spot), Fab 3.3 nM; blank 359.

rHuman Erythropoietin R/Fc Chimera, CF (R&D Systems Cat#963-ER) (human), sequence (P19235 25-250, change not shown): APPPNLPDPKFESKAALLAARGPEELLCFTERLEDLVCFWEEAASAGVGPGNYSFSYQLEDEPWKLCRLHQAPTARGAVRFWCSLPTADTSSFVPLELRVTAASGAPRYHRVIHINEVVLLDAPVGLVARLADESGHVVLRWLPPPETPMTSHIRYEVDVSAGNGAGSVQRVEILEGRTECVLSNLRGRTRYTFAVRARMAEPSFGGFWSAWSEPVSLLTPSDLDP

As for “Fab VH3-23_IGHD3-10*01>3_IGHJ6*01 & O12_IGKJ1*01”, the ECL signal was 5500 in experiment [1]; 4580 in experiment [2]; 6650 in [3]; 5470 in experiment [4]; 2580 ECL signal in experiment [5]; 2510 ECL signal in experiment [6]. Also, the ECL signal in experiment [7] is 2700 ECL signal; in experiment [8], 660 ECL signal; in [9] it was 319 ECL signal; in [10] it was 412 ECL signal; in experiment [11] it was 14400 ECL signal; in [12], 20600 ECL signal. The ECL signal in experiment [13] came to 15900 ECL signal; in [14] it was 218 ECL signal; in experiment [15], 210 ECL signal; in [16], 287 ECL signal.

Consider “Fab VH4-31_IGHD2-15*01_IGHJ2*01 & V1-4_IGLJ4*01”, for which the ECL signal in [17] is 1970 ECL signal; in experiment [18] it was 1980 ECL signal; in [19], 2060 ECL signal; in [20], 2120 ECL signal; in experiment [21], 1430 ECL signal; in experiment [22], 1620 ECL signal. For the same substance, the ECL signal in experiment [23] was found to be 1310; in [24], 1530; in experiment [25], 1300; in experiment [26] it was 1560; in experiment [27] it was 669 ECL signal; in experiment [28] it was 930 ECL signal. Moreover, the ECL signal in experiment [29] stood at 981 ECL signal; in experiment [30] it was 776 ECL signal; in experiment [31] it was 814 ECL signal; in experiment [32] it was 824 ECL signal; in experiment [33], 1320 ECL signal; in experiment [34], 1510 ECL signal. For the same substance, the ECL signal came to 1290 ECL signal in [35]; 1320 ECL signal in experiment [36]; 911 ECL signal in experiment [37]; 1110 ECL signal in experiment [38]; 726 ECL signal in experiment [39]; 1030 ECL signal in experiment [40]. Moreover, the ECL signal in [41] worked out at 849 ECL signal; in experiment [42], 695 ECL signal; in [43], 743 ECL signal; in experiment [44] it was 847 ECL signal.
